T1: MBP-CFLAP1 (AKS1) (Arabidopsis thaliana, UniProt Q9C690 1-379)
T1 sequence: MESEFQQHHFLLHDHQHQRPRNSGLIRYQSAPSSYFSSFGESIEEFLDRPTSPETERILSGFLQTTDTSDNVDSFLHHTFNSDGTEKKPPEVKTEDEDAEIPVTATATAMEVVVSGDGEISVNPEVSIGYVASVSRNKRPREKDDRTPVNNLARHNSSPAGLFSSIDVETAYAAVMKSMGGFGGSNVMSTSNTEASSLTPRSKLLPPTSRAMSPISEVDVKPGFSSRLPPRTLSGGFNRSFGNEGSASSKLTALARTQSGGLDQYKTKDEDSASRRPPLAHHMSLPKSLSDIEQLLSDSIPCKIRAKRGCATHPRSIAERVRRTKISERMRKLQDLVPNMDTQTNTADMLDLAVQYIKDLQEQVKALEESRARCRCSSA

B1: pCYP86A2 P3 probe (dsDNA)
DNA 1: GATCATTGGTTTACGATCACTTGCAAAGTC
DNA 2: GACTTTGCAAGTGATCGTAAACCAATGATC
B2: pCYP86A4 P2 probe (dsDNA)
DNA 1: CCACTTTGGTTAACATTTGAGGAAT
DNA 2: ATTCCTCAAATGTTAACCAAAGTGG
B3: pBDG1 P2 probe (dsDNA)
DNA 1: TGGCCACATGCCATCATATCACTTGTCCAT
DNA 2: ATGGACAAGTGATATGATGGCATGTGGCCA
B4: pCYP86A2 P1 probe (dsDNA)
DNA 1: CTACGTACAGTTGTGTTCCATTTGTTACAA
DNA 2: TTGTAACAAATGGAACACAACTGTACGTAG
B5: pBDG1 P1 probe (dsDNA)
DNA 1: CGTCGTTGACCTCTGCATTACAATTGTGTC
DNA 2: GACACAATTGTAATGCAGAGGTCAACGACG
B6: pCYP86A4 P1 probe (dsDNA)
DNA 1: TCGGAAAAGTACACTTGGGCTTATA
DNA 2: TATAAGCCCAAGTGTACTTTTCCGA
B7: pCYP86A2 P2 probe (dsDNA)
DNA 1: GATATTGCAGTTGCAGCGTACACAAGTCAG
DNA 2: CTGACTTGTGTACGCTGCAACTGCAATATC

target: T1, MBP-CFLAP1 (AKS1); test: EMSA

Binding result, binds:
B1
B2
B3
B4
B5
B6
B7

Reference: paper doi:10.1101/2025.10.28.684701
